Data on 7 sequences can be found in a protein production outcome set (Wang et al. 2014).

A short description of the series: label from the status in PepcDB records.
In the case of “MTNITPEAKNTNRHSVLLVEKEGRNLARKYHQVLVEELTIIKQGYKTFSSKNIAIPSGFWYHYDTSLTDSYENAKSECFYIPNDNQNYPLQEMRRDCKEYERVEKQVVFKNNKNNELNELPKYLNNAKKY”, the protein production entry was “failed”.
As for “TEASSLVGKLETDVEIKASADKFHHMFAGKPHHVSKASPGNIQGCDLHEGDWGTVGSIVFWNYVHDGEAKVAKERIEAVEPDKNLITFRVIEGDLMKEYKSFLLTIQVTPKPGGPGSIVHWHLEYEKISEEVAHPETLLQFCVEVSKEIDEHLLAEE”, the protein production entry is listed as “not failed”.
Turning to “MITTKLKLSVTNDYLLRINENRYVLIDTGYKEDWKLFLKRLKENGIKINEISYVILTHHHDDHVGFLNKLVSENKDIRVVMSDKTNELIKVGENDQTHGGGLINKRIEFLIRYKNMYVSKVLGVKKENNLKFPPYESRNNDIIFTGEVTLRELGIDLPGKIIETPGHTIDSISILFEDGDCFVGDAAANMLKLCGTKNCVIFIMDKKQYYESWDKMIKVGVKKVYPAHGGEFSVGRLKKNIWRNL”, the protein production result is “failed”.
For the sequence “MAGTTQGAKTLYDKLWDDHLVSQRDDGSCLIYIDRHLLHEVTSPQAFEGLQLAGRQPWRLNANIATPDHNVPTSKKEREQGIAGIEDDTSRIQVQTLDDNCKTFNIVEFGINDIRQGIVHVVGPEQGLTLPGMTVVCGDSHTATHGAFGCLAHGIGTSEVEHVLATQCLIQKKSKNMLIRVDGQLGKGVTPKDVVLAIIGKIGTAGGTGYAIEFGGQVFRDMSIEGRMTVCNMAIEAGARVGMVAVDDKTIEYVQSRHYAPKGEQWDQAVAYWNTLHSDDDAVFDEVVVLNGAEIEPQVSWGTSPEMVIPVSQAVPTLEQAKDDVQRNDWTRAYQYMGLTAGQALADIQLDRVFIGSCTNSRIEDIRAAAEVVKGRKVASSIKQAMIVPGSGLVKQQAEQEGLDQVFLEAGFEWREPGCSMCLAMNSDKLQPGEHCASTSNRNFEGRQGNGGRTHLVSPAMAAAAAIAGHFVDVRSF”, the protein production result is listed as “failed”.
Take “MAVQRVQETQRHSSRVLVPQHAGQFHPVGLRHLSTGPGLHRRSVLRSARVLAKSSIDQPPGQHAQGAVMLRTPFSPRLEGWLLVALAVLLIGAGLGMRQPQNVDEERFLGVALEMLQNGSWFVPHRAAEIYADKPPLFMWTVAFFIWLTGSPNIALYLPGLLSAGTITAVLYDLGNRLWERRIGRYAALLFLATYQTYSILRTGQIDSFLCLWVALGFYGLVRHLLLGPAWGWFYFSCAAMGLGIISKGVGFVPALMLIPYAYAVRKNWHGVVRMPGQAARWALGLLVTLIACCLWLVPMVISVVRDGGPEGFAYLHEILLHQTANRYASAWDHREPFWYFLVNVIPQYWLPLVFALPWLIPAWRRQLSKQDGRVLVLLGWVLLVLLFFSLSSGKRKLYIFPALPGLVLVAAPLVPWLLRRWFRERVLARRIVPTIVVVWLALWFARGFIEPVVEGENPHKELMEQAAEVTHGADLVLVNWREGHWLYARQPMVHFGFAHALANERAASWLREHPGTFALVPGELLANCFLPEKAHPLGKTSRADWFLVDAQADNGVCRPERPPEVYRFAWKQNAQ”: the protein production result is reported as “failed”.
For “MHGAEHLLEIFYLLLAAQVMAFIFKRLNQPVVIGEVLAGVLVGPALLGLVHEGEILEFLAELGAVFLLFMVGLETRLKDILAVGKEAFLVAVLGVALPFLGGYLYGLEIGFETLPALFLGTALVATSVGITARVLQELGVLSRPYSRIILGAAVIDDVLGLIVLAVVNGVAETGQVEVGAITRLIVLSVVFVGLAVFLSTLIARLPLERLPVGSPLGFALALGVGMAALAASIGLAPIVGAFLGGMLLSEVREKYRLEEPIFAIESFLAPIFFAMVGVRLELSALASPVVLVAGTVVTVIAILGKVLGGFLGALTQGVRSALTVGVGMAPRGEVGLIVAALGLKAGAVNEEEYAIVLFMVVFTTLFAPFALKPLIAWTERERAAKE”, the protein production result was “failed”.
Consider “MSRRSHNPQSCSSVPTALINGPRVETMTDSVLDVTADALEQAGAHPHRLVVRQHGQVVGRRRWAPWSPDVPSLVYSCSKTFTSAAVGIAVNRGAFGYDDTLADLWPQACTANTGPVAKSMTVRNALSMSTGHSPEQLLEPTLMSRRLPDLNTARILLATEPEGRPGIDFAYNNLATWMLSRLVAQHTGEDVDTIITKEVLDPIGAGPHTWVRDADGIPMGFSGLHIDAEDLSLFGQLLLDDGVHEGARLLPEEWIRQHRVRQVNCDSETDPEWGMGYGWQTWMSSHGYRLDGAFGQYVLIVPEVDAVITMTNEASEGPGDKQAILQAVWDHLLPALADGFQPQPEEIVRTVPTVTGEFDSARSVQGIAPDGSYIVVSPHKESRTWAMSWRCPGTFSHPTDETLDIAVGYEEWQTSHCRVGDDAIDIATSGGWQGETFVARLCVISTPHTLTLRMTPEATTTEWDNEPLNPGGLLGLVHPELRR”, for which the protein production result is “failed”.
